Source: patent US20250092160A1 (published 2025)

Assays:
CD19 (Table 9) = target: T1, CD19 (Table 9) (UniProt P15391 20-291)
T1 sequence (looked up): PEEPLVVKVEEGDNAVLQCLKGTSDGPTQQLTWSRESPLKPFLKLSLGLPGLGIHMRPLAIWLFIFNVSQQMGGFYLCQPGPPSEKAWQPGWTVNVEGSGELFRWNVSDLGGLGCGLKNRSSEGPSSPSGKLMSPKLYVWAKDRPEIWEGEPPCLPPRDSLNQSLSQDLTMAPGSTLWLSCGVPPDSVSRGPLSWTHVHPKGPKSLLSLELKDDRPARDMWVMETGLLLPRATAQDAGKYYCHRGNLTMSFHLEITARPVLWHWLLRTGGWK

[1] = target: T2, Recombinant CD20 (ACROBiosystems Cat #CD0-H52H3) (UniProt P11836 1-297); assay: SPR Carterra LSA
T2 construct: also called monovalent CD20
T2 sequence: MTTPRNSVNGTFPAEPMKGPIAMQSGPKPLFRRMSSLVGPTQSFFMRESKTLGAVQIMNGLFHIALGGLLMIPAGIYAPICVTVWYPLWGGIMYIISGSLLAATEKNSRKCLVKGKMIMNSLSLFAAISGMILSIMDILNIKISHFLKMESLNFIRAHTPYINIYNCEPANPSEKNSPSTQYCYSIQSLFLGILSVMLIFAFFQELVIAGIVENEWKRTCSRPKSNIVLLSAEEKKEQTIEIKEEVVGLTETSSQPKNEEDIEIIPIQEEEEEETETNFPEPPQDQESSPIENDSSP

CD32a 131R FcRγIIa [2] = target: T3, CD32a 131R FcRγIIa (human, UniProt P12318 36-218); assay: SPR Carterra LSA
T3 construct: also called Fc gamma RIIa (CD32) (Arg167)
T3 sequence (looked up): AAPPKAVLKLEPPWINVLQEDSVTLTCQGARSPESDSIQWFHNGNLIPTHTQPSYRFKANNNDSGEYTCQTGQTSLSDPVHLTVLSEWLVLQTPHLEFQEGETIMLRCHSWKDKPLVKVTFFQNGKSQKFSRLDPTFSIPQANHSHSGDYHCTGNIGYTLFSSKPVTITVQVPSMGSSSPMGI

[3] = target: T4, Recombinant CD19 (ACROBiosystems Cat #CD9-H52H2) (UniProt P15391 20-291); assay: SPR Carterra LSA
T4 construct: also called monovalent CD19
T4 sequence: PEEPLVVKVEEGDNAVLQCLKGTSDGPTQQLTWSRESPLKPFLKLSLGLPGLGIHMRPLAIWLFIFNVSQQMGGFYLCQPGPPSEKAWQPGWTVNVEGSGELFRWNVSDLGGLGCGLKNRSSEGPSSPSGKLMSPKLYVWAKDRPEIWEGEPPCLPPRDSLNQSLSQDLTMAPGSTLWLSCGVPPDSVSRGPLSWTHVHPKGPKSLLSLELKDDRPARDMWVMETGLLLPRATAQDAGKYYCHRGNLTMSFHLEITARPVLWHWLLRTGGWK

CD64 FcRγI [4] = target: T5, CD64 FcRγI (human, UniProt P12314 16-288); assay: SPR Carterra LSA
T5 construct: also called Fc gamma RI (CD64)
T5 sequence (P12314 16-288 limits assumed): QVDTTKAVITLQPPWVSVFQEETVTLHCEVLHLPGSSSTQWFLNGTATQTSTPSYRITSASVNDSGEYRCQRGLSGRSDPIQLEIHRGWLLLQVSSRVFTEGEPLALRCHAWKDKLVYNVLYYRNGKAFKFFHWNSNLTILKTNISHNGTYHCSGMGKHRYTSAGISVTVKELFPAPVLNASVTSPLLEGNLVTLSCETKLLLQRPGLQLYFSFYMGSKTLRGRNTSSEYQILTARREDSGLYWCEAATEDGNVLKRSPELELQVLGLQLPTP

CD16a 158V FcRγIIIa [5] = target: T6, CD16a 158V FcRγIIIa (human, UniProt P08637 17-208); assay: SPR Carterra LSA
T6 construct: also called FcgRIIIa 158 V _ CD 16 a 158 V; Fc gamma RIIIa (CD16a) (Val176)
T6 sequence (P08637 17-208 F176V limits assumed): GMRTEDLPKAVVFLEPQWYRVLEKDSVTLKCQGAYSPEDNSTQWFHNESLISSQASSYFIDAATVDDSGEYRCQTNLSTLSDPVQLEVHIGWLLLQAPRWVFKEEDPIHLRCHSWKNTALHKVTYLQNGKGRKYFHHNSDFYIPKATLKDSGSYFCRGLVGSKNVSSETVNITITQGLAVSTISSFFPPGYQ

CD32a 131H FcRγIIa = target: T7, CD32a 131H FcRγIIa (human, UniProt P12318 36-218)
T7 sequence (looked up): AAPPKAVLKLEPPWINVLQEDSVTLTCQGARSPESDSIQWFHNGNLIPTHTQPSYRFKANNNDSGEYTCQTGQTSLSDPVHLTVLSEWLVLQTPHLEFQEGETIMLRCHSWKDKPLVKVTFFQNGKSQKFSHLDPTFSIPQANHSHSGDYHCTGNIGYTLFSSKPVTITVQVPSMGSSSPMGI

CD32a 131R FcRγIIa [6] = target: T3, CD32a 131R FcRγIIa
CD64 FcRγI [7] = target: T5, CD64 FcRγI
CD16b FcRγIIIb = CD16b FcRγIIIb (human, UniProt O75015 20-208)
Chain of CD16b FcRγIIIb (O75015 20-208 limits assumed): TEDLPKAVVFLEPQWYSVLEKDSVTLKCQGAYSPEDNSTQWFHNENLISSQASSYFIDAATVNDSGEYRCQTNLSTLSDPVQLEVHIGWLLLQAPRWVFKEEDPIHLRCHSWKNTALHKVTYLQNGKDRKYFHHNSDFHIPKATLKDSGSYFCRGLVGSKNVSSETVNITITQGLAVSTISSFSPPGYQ

CD16a 158V FcRγIIIa [8] = target: T6, CD16a 158V FcRγIIIa
CD32b/c FcRγIIb = target: T8, CD32b/c FcRγIIb (human, UniProt P31994 46-217)
T8 sequence (looked up): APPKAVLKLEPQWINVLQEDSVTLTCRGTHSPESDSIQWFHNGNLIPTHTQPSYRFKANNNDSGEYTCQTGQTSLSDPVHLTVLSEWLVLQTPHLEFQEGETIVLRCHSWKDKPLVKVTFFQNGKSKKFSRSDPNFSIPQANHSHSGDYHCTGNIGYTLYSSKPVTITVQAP

Binder	Kd (CD19 (Table 9))	binding result [1]	binding result (CD32a 131R FcRγIIa [2])	binding result [3]	binding result (CD64 FcRγI [4])	binding result (CD16a 158V FcRγIIIa [5])	further results
B19c66 (antibody, human IgG1, kappa) light: not shown heavy: not shown CPPCPAPELLGGPSVFLFPPKPKDTLMISRTPEVTCVVVDVSHEDPEVKFNWYVDGVEVHNAKTKPREEQYNSTYRVVSVLTVLHQDWLNGKEYKCKVSNKALPAPIEKTISKAKGQPREPQVYVYPPSRDELTKNQVSLTCLVKGFYPSDIAVEWESNGQPENNYKTTPPVLDSDGSFALVSKLTVDKSRWQQGNVFSCSVMHEALHNHYTQKSLSLSPGK	21.8 nM						
B19c66AAC9 (antibody, human IgG1, kappa) light: not shown heavy: QVQLQQSGAELVRPGSSVKISCKASGYAFSSYWMNWVKQRPGQGLEWIGQIWPGDGDTNYNGKFKGKATLTADESSSTAYMQLSSLASEDSAVYFCARRETTTVGRYYYAMDYWGQGTTVTVSSASTKGPSVFPLAPSSKSTSGGTAALGCLVKDYFPEPVTVSWNSGALTSGVHTFPAVLQSSGLYSLSSVVTVPSSSLGTQTYICNVNHKPSNTKVDKKVEPKSCDKTHTCPPCPAPKRRGGPSVFLFPPKPKDTLMISRTPEVTCVVVDVSHEDPEVKFNWYVDGVEVHNAKTKPREEQYNSTYRVVSVLTVLHQDWLNGKEYKCKVSNKALPAPIEKTISKAKGQPREPQVYVLPPSRDELTKNQVSLLCLVKGFYPSDIAVEWESNGQPENNYLTWPPVLDSDGSFFLYSKLTVDKSRWQQGNVFSCSVMHEALHNHYTQKSLSLSPGK CPPCPAPEDEGGPSVFLFPPKPKDTLMISRTPEVTCVVVDVSHEDPEVKFNWYVDGVEVHNAKTKPREEQYNSTYRVVSVLTVLHQDWLNGKEYKCKVSNKALPAPIEKTISKAKGQPREPQVYVYPPSRDELTKNQVSLTCLVKGFYPSDIAVEWESNGQPENNYKTTPPVLDSDGSFALVSKLTVDKSRWQQGNVFSCSVMHEALHNHYTQKSLSLSPGK	21 nM						
HB1905 (bispecific antibody, human IgG1, kappa, also called anti-CD20/anti-CD19 bispecific GEM-DIMER) light 1: DIQMTQTTSSLSASLGDRVTISCRASQDISKYLNWYQEKPDGTVKLLIYHTSRLHSGVPSRFSGSGSGTDYSLTISNLEQEDIATYFCQQGNTLPYTFGGGTKLEIKRTVAAPSVFIFPPSDEQLKSGTASVKCLLNNFYPREAKVQWKVDNALQSGNSQESVTEQDSKDSTYSLSSTLTLSKADYEKHKVYACEVTHQGLSSPVTKSFNRGEC heavy 1: EVKLQESGPGLVAPSQSLSVTCTVSGVSLPDYGVSWIRKPPRKGLEWLGVIWGSETTYYNSALKSRLTIIKDNSKSQVFLKMSSLQTDDTAIYYCAKHYYYGGSYAMDYWGQGTSVTVSSASTKGPSVFPLAPSSKSTSGGTAALGCLVKDYFPEPVTVSWNSGALTSGVHTFPAVLQSSGLYSLESVVTVPSSSLGTQTYICNVNHKPSNTKVDKKVEPKSCTDWSPYADQSIKVRISLKSALGDKAYEWNDNEMYLFRSSVAYAMRQYFLKVKNQMILFGEEDVRVANLKPRISFNFFVTAPKNVSDIIPRTEVEKAIRMSRSRINDAFRLNDNSLEFLGIQPTLGPPNQPPVSTSTSPTRSMAPGAVHLPQPVSTRDKTHTCPPCPAPELLGGPSVFLFPPKPKDTLMISRTPEVTCVVVDVSHEDPEVKFNWYVDGVEVHNAKTKPREEQYNSTYRVVSVLTVLHQDWLNGKEYKCKVSNKALPAPIEKTISKAKGQPREPQVCTLPPSRDELTKNQVSLSCAVKGFYPSDIAVEWESNGQPENNYKTTPPVLDSDGSFFLVSKLTVDKSRWQQGNVFSCSVMHEALHNRFTQKSLSLSPG light 2: QVQLQQPGAELVKPGASVKMSCKASGYTFTSYNMHWVKKTPGRGLEWIGAIYPGNGDTSYNQKFKGKATLTADKSSSTAYMQLSSLTSEDSAVYYCARSTYYGGDWYFNVWGAGTLVTVSSASVAAPSVFIFPPSDEQLKSGTASVECLLNNFYPREAKVQWKVDNALQSGNSQESVTEQDSKDSTYSLSSTLTLSKADYEKHKVYACEVTHQGLSSPVTKSFNRGEC heavy 2: not shown		binds	binds	binds	binds	binds	
HB1906 (bispecific antibody, human IgG1, kappa, also called anti-CD20/anti-CD19 bispecific GEM-DIMER) light 1: DIQMTQTTSSLSASLGDRVTISCRASQDISKYLNWYQEKPDGTVKLLIYHTSRLHSGVPSRFSGSGSGTDYSLTISNLEQEDIATYFCQQGNTLPYTFGGGTKLEIKRTVAAPSVFIFPPSDEQLKSGTASVKCLLNNFYPREAKVQWKVDNALQSGNSQESVTEQDSKDSTYSLSSTLTLSKADYEKHKVYACEVTHQGLSSPVTKSFNRGEC heavy 1: EVKLQESGPGLVAPSQSLSVTCTVSGVSLPDYGVSWIRKPPRKGLEWLGVIWGSETTYYNSALKSRLTIIKDNSKSQVFLKMSSLQTDDTAIYYCAKHYYYGGSYAMDYWGQGTSVTVSSASTKGPSVFPLAPSSKSTSGGTAALGCLVKDYFPEPVTVSWNSGALTSGVHTFPAVLQSSGLYSLESVVTVPSSSLGTQTYICNVNHKPSNTKVDKKVEPKSCTDWSPYADQSIKVRISLKSALGDKAYEWNDNEMYLFRSSVAYAMRQYFLKVKNQMILFGEEDVRVANLKPRISFNFFVTAPKNVSDIIPRTEVEKAIRMSRSRINDAFRLNDNSLEFLGIQPTLGPPNQPPVSTSTSPTRSMAPGAVHLPQPVSTRDKTHTCPPCPAPELLGGPSVFLFPPKPKDTLMISRTPEVTCVVVDVSHEDPEVKFNWYVDGVEVHNAKTKPREEQYNSTYRVVSVLTVLHQDWLNGKEYKCKVSNKALPAPIEKTISKAKGQPREPQVCTLPPSRDELTKNQVSLSCAVKGFYPSDIAVEWESNGQPENNYKTTPPVLDSDGSFFLVSKLTVDKSRWQQGNVFSCSVMHEALHNRFTQKSLSLSPG light 2: QVQLQQPGAELVKPGASVKMSCKASGYTFTSYNMHWVKETPGRGLEWIGAIYPGNGDTSYNQKFKGKATLTADKSSSTAYMQLSSLTSEDSAVYYCARSTYYGGDWYFNVWGAGTLVTVSSASVAAPSVFIFPPSDEQLKSGTASVECLLNNFYPREAKVQWKVDNALQSGNSQESVTEQDSKDSTYSLSSTLTLSKADYEKHKVYACEVTHQGLSSPVTKSFNRGEC heavy 2: not shown		binds	binds	binds	binds	binds	
Rituxan (antibody) VH: not shown VL: QIVLSQSPAILSASPGEKVTMTCRASSSVSYIHWFQQKPGSSPKPWIYATSNLASGVPVRFSGSGSGTSYSLTISRVEAEDAATYYCQQWTSNPPTFGGGTKLEIKRTVAAPSVFIFPPSDEQLKSGTASVVCLLNNFYPREAKVQWKVDNALQSGNSQESVTEQDSKDSTYSLSSTLTLSKADYEKHKVYACEVTHQGLSSPVTKSFNRGEC							Kd (CD32a 131H FcRγIIa): 892 nM; Kd (CD32a 131R FcRγIIa [6]): 1250 nM; Kd (CD64 FcRγI [7]): 52.8 nM; Kd (CD16b FcRγIIIb): 1530 nM; Kd (CD16a 158V FcRγIIIa [8]): 715 nM; Kd (CD32b/c FcRγIIb): 1520 nM
